This note sets out measurements from publication PMC3882083 (Nature methods, 2013).

One test deals with 3XFLAG-CDK4 R24C (human, UniProt P11802 1-303, R24C). Put plainly: affinity purification with mass spectrometry.
In a further test the target is 3XFLAG-CDK4 R24H (human, UniProt P11802 1-303, R24H). Put plainly: affinity purification with mass spectrometry.
3XFLAG-CDK4 R24H, sequence (P11802 whole entry R24H): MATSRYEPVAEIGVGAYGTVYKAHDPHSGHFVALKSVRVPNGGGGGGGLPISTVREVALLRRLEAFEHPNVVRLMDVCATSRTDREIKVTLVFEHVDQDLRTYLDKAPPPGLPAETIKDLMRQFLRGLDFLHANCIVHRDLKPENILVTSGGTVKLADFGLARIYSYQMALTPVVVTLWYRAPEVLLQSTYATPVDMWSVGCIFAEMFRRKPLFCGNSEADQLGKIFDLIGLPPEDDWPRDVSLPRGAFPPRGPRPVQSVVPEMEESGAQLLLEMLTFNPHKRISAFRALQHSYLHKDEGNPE

3XFLAG-CDK4 R24C, sequence (P11802 whole entry R24C): as the sequence (P11802 whole entry R24H) above, with H24C counted along it

B1: CDC37 co-chaperone (natural protein)
chain: MVDYSVWDHIEVSDDEDETHPNIDTASLFRWRHQARVERMEQFQKEKEELDRGCRECKRKVAECQRKLKELEVAEGGKAELERLQAEAQQLRKEERSWEQKLEEMRKKEKSMPWNVDTLSKDGFSKSMVNTKPEKTEEDSEEVREQKHKTFVEKYEKQIKHFGMLRRWDDSQKYLSDNVHLVCEETANYLVIWCIDLEVEEKCALMEQVAHQTIVMQFILELAKSLKVDPRACFRQFFTKIKTADRQYMEGFNDELEAFKERVRGRAKLRIEKAMKEYEEEERKKRLGPGGLDPVEVYESLPEELQKCFDVKDVQMLQDAISKMDPTDAKYHMQRCIDSGLWVPNSKASEAKEGEEAGPGDPLLEAVPKTGDEKDVSV
Take B1: the “fold increase against CDK4 WT” value in the test with 3XFLAG-CDK4 R24C and with 3XFLAG-CDK4 R24H was at least 3.9 fold throughout.

B2: HSP90AB1 (natural protein)
chain: not shown
With B2, the “fold increase against CDK4 WT” value with 3XFLAG-CDK4 R24C and in the test with 3XFLAG-CDK4 R24H was at least 3 fold in each case.
